# Test results reported in US20250011737A1 (ALX ONCOLOGY, published 2025).
# Substitutions are numbered along the chain they refer to.
# B1: SIRP-α variant (SEQ ID NO: 31) (receptor)
# chain: EEELQIIQPDKSVLVAAGETATLRCTITSLFPVGPIQWFRGAGPGRVLIYNQRQGPFPRVTTVSDTTKRNNMDFSIRIGNITPADAGTYYCIKFRKGSPDDVEFKSGAGTELSVRAKPS
# notes: also called SIRP-α variant alone
# B2: SIRP-α variant construct (SEQ ID NO: 52), intact (other)
# chain: QLLFNKTKSVEFTFSNDTVVIPCFVTNMEAQNTTEVYVKWKFKGRDIYTFDGALNKSTVPTDFSSAKIEVSQLLKGDASLKMDKSDAVSHTGNYTCEVTELTREGETIIELKYRVVSGGGGSGGGGSGGGGSLSGRSDNHGGGGSGGGGSEEELQIIQPDKSVLVAAGETATLRCTITSLFPVGPIQWFRGAGPGRVLIYNQRQGPFPRVTTVSDTTKRNNMDFSIRIGNITPADAGTYYCIKFRKGSPDDVEFKSGAGTELSVRAKPS
# notes: uncleaved
# B3: SIRP-α variant construct (SEQ ID NO: 53), intact (other)
# chain: QLLFNKTKSVEFTFSNDTVVIPCFVTNMEAQNTTEVYVKWKFKGRDIYTFDGALNKSTVPTDFSSAKIEVSQLLKGDASLKMDKSDAVSHTGNYTCEVTELTREGETIIELKYRVVSGGGGSGGGGSGGGGSGGGGSLSGRSDNHGGGGSGGGGSEEELQIIQPDKSVLVAAGETATLRCTITSLFPVGPIQWFRGAGPGRVLIYNQRQGPFPRVTTVSDTTKRNNMDFSIRIGNITPADAGTYYCIKFRKGSPDDVEFKSGAGTELSVRAKPS
# notes: uncleaved
# B4: SIRP-α variant construct (SEQ ID NO: 54), intact (other)
# chain: QLLFNKTKSVEFTFSNDTVVIPCFVTNMEAQNTTEVYVKWKFKGRDIYTFDGALNKSTVPTDFSSAKIEVSQLLKGDASLKMDKSDAVSHTGNYTCEVTELTREGETIIELKYRVVSGGGGSGGGGSGGGGSGGGGSGGGGSLSGRSDNHGGGGSGGGGSEEELQIIQPDKSVLVAAGETATLRCTITSLFPVGPIQWFRGAGPGRVLIYNQRQGPFPRVTTVSDTTKRNNMDFSIRIGNITPADAGTYYCIKFRKGSPDDVEFKSGAGTELSVRAKPS
# notes: uncleaved
# B5: SIRP-α variant construct (SEQ ID NO: 49), intact (other)
# chain: SEVTELTREGETGGGGSGGGGSGGGGSLSGRSDNHGGGGSGGGGSEEELQIIQPDKSVLVAAGETATLRCTITSLFPVGPIQWFRGAGPGRVLIYNQRQGPFPRVTTVSDTTKRNNMDFSIRIGNITPADAGTYYCIKFRKGSPDDVEFKSGAGTELSVRAKPS
# notes: uncleaved
# B6: SIRP-α variant construct (SEQ ID NO: 50), intact (other)
# chain: GQYTSEVTELTREGETIIELKGGGGSGGGGSLSGRSDNHGGGGSGGGGSEEELQIIQPDKSVLVAAGETATLRCTITSLFPVGPIQWFRGAGPGRVLIYNQRQGPFPRVTTVSDTTKRNNMDFSIRIGNITPADAGTYYCIKFRKGSPDDVEFKSGAGTELSVRAKPS
# notes: uncleaved
# B7: SIRP-α variant construct (SEQ ID NO: 48), intact (other)
# chain: SEVTELTREGETGGGGSGGGGSLSGRSDNHGGGGSGGGGSEEELQIIQPDKSVLVAAGETATLRCTITSLFPVGPIQWFRGAGPGRVLIYNQRQGPFPRVTTVSDTTKRNNMDFSIRIGNITPADAGTYYCIKFRKGSPDDVEFKSGAGTELSVRAKPS
# notes: uncleaved
# B8: SIRP-α variant construct (SEQ ID NO: 51), intact (other)
# chain: GQYTSEVTELTREGETIIELKGGGGSGGGGSGGGGSLSGRSDNHGGGGSGGGGSEEELQIIQPDKSVLVAAGETATLRCTITSLFPVGPIQWFRGAGPGRVLIYNQRQGPFPRVTTVSDTTKRNNMDFSIRIGNITPADAGTYYCIKFRKGSPDDVEFKSGAGTELSVRAKPS
# notes: uncleaved
# B9: SIRP-α variant construct (SEQ ID NO: 59), intact (other)
# chain: GQLLFNKTKSVEFTFSNDTVVIPCFVTNMEAQNTTEVYVKWKFKGRDIYTFDGALNKSTVPTDFSSAKIEVSQLLKGDASLKMDKSDAVSHTGNYTCEVTELTREGETIIELKYRVVSGGGGSGGGGSGGGGSGGGGSGGGGSLSGRSDNHGGGGSGGGGSEEELQIIQPDKSVLVAAGETATLRCTITSLFPVGPIQWFRGAGPGRVLIYNQRQGPFPRVTTVSDTTKRNNMDFSIRIGNITPADAGTYYCIKFRKGSPDDVEFKSGAGTELSVRAKPS
# notes: uncleaved
# B10: SIRP-α variant construct (SEQ ID NO: 58), intact (other)
# chain: GQLLFNKTKSVEFTFSNDTVVIPCFVTNMEAQNTTEVYVKWKFKGRDIYTFDGALNKSTVPTDFSSAKIEVSQLLKGDASLKMDKSDAVSHTGNYTCEVTELTREGETIIELKYRVVSGGGGSGGGGSGGGGSGGGGSLSGRSDNHGGGGSGGGGSEEELQIIQPDKSVLVAAGETATLRCTITSLFPVGPIQWFRGAGPGRVLIYNQRQGPFPRVTTVSDTTKRNNMDFSIRIGNITPADAGTYYCIKFRKGSPDDVEFKSGAGTELSVRAKPS
# notes: uncleaved
# B11: SIRP-α variant construct (SEQ ID NO: 57), intact (other)
# chain: GQLLFNKTKSVEFTFSNDTVVIPCFVTNMEAQNTTEVYVKWKFKGRDIYTFDGALNKSTVPTDFSSAKIEVSQLLKGDASLKMDKSDAVSHTGNYTCEVTELTREGETIIELKYRVVSGGGGSGGGGSGGGGSLSGRSDNHGGGGSGGGGSEEELQIIQPDKSVLVAAGETATLRCTITSLFPVGPIQWFRGAGPGRVLIYNQRQGPFPRVTTVSDTTKRNNMDFSIRIGNITPADAGTYYCIKFRKGSPDDVEFKSGAGTELSVRAKPS
# notes: uncleaved
# B12: SIRP-α variant construct (SEQ ID NO: 60), intact (other)
# chain: B3 chain with L101Q
# notes: uncleaved
# B13: SIRP-α variant construct (SEQ ID NO: 62), intact (other)
# chain: B3 chain with T102Q
# notes: uncleaved
# B14: SIRP-α variant construct (SEQ ID NO: 61), intact (other)
# chain: B3 chain with L101Y
# notes: uncleaved
# B15: SIRP-α variant construct (SEQ ID NO: 63), intact (other)
# chain: B3 chain with T102H
# notes: uncleaved
# Target: T1, CD47 IgSF domain having amino acids 1-117 and C15S, relative to wild-type CD47 (SEQ ID NO: 35) (human, UniProt Q08722 19-135)
# T1 construct: in the assay it was tethered to, or released by cleavage from, the SIRP-α variant (it then still carries spacer and linker residues); also called IgSF domain of CD47
# Test: inferred from SPR of cleaved constructs SEQ ID NOs: 52-54 on CD47-hFc
row,binding result,Binder
1,binds,B1

# Target: T2, human CD47-hFc (R & D Systems, catalog number 4670-CD) (human, UniProt Q08722 19-139)
# T2 construct: Bought; immobilized by amine coupling on a CM4 chip (370 RU); also called CD47 on the chip; not shown: human Fc (hFc) of a bought protein
# T2 sequence (Q08722 19-139 limits assumed): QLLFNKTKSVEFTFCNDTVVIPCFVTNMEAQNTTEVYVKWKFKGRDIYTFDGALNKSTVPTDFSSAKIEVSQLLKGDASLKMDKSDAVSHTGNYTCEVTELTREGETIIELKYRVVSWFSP
# Test: SPR (Biacore T100), CD47-hFc immobilized on CM4 chip, intact construct injected
row,binding result,Binder
1,no binding (tested: 100 nM),B2
2,no binding (tested: 100 nM),B3
3,no binding (tested: 100 nM),B4

# Target: T2, human CD47-hFc (R & D Systems, catalog …)
# Test: SPR (Biacore T100), CD47-hFc immobilized on CM4 chip, intact construct at 100 nM
row,binding result,Binder
1,binds,B5
2,binds,B6
3,binds,B7
4,binds,B8

# Target: T2, human CD47-hFc (R & D Systems, catalog …)
# Test: SPR (Biacore T100), CD47-hFc immobilized on CM4 chip, intact construct injected (FIG. 5B)
row,binding result,Binder
1,no binding (tested: 100 nM),B9
2,no binding (tested: 100 nM),B10
3,no binding (tested: 100 nM),B11
4,no binding (tested: 100 nM),B12
5,no binding (tested: 100 nM),B13
6,no binding (tested: 100 nM),B14
7,no binding (tested: 100 nM),B15
